Measured values reported in publication PMC5117717.

Columns and labels:
[1] = target: Alexa Fluor 488-labelled BRC4 peptide (human); experiment: fluorescence polarisation; direct binding; 10 nM Alexa Fluor 488-labelled BRC4 peptide constant, protein titrated; 25 °C, 100 mM Tris (pH 7.5), 200 mM KCl, 1.25% glycerol; single-site fit
[2] = target: unlabelled BRC4 repeat (E. coli-produced); experiment: DSF (thermal shift); settings: read off a plot
ATP-Mg2+ = experiment: DSF (thermal shift); settings: read off a plot
[3] = target: RadA oligomerisation peptide; experiment: DSF (thermal shift); settings: read off a plot
[4] = target: HumRadA1 (first humanised RadA protein) (Pyrococcus furiosus) (UniProt O74036); experiment: ITC; 25 °C; peptide titrated into protein; single-site model; the buffer for HumRadA1 is not listed
[5] = target: HumRadA33 (Pyrococcus furiosus) (UniProt O74036); experiment: ITC; 25 °C; peptide titrated into protein; 50 mM Tris–HCl (pH 8.5), 250 mM NaCl, 5 mM MgCl2; single-site model
[6] = target: HumRadA2 (Pyrococcus furiosus) (UniProt O74036); experiment: ITC; 25 °C; peptide titrated into protein; 50 mM Tris–HCl (pH 7.5), 150 mM NaCl, 5 mM MgCl2; single-site model
[7] = target: ChimRAD51 (archeal human chimeric RadA/RAD51/RadA protein) (Pyrococcus furiosus | human) (UniProt O74036); experiment: ITC; 25 °C; ChimRAD51 dialysed against 20 mM K/phosphate (pH 8.0) and 192 mM KCl

Row | other: ΔT (DSF thermal shift on ligand addition) [2] | Kd [4] | Kd [5] | Substance | other results
1 |  |  |  | ChimRAD51 (archeal human chimeric RadA/RAD51/RadA protein) (from UniProt O74036 108-165; Q06609 156-261; O74036 278-349) | Kd [1]: 4 nM
2 | 0.3 °C |  |  | PfRadA monomeric C-terminal ATPase domain (from residue 108, L2 loop deleted) I169M; Y201A; V202Y; E219S; D220A; K221M | 
3 | 0.15 °C |  |  | PfRadA monomeric C-terminal ATPase domain (from residue 108, L2 loop deleted) I169M; Y201A; V202Y; L213Q; V215L; Q216Y; E219S; D220A; K221M; D267M; L274E; Y275F | other: ΔT (DSF thermal shift on ligand addition) (ATP-Mg2+): 6.1 °C; other: ΔT (DSF thermal shift on ligand addition) [3]: 2.7 °C
4 |  | 24000 nM | 800 nM | RAD51 oligomerisation peptide | 
5 |  | 1800 nM | 14000 nM | RadA oligomerisation peptide | Kd [6]: 3400 nM
6 |  |  | 33 nM | unlabelled BRC4 repeat (E. coli-produced) (peptide) | stoichiometry N [7]: 1
